These results are taken from patent publication US20060275312A1.

Test [1] addresses human IgE from serum of a representative allergic subject with high IgE reactivity to house dust mite allergens (human). Description: competitive inhibition ELISA, human serum IgE, GST-Blo t5 on plate, inhibitor at 10 µg/ml. Background: An ELISA detects its analyte on a solid surface through an enzyme-linked reagent.
Test [2] shares this target. Description: competitive inhibition ELISA, human serum IgE, GST-Blo t5 on plate.

B1: Blo t 5 (recombinant major house dust mite allergen from Blomia tropicalis) (protein)
chain: QEHKPKKDDFRNEFDHLLIEQANHAIEKGEHQLLYLQHQLDELNENKSKELQEKIIRELDVVCAMIEGAQGALERELKRTDLNILERFNYEEAQTLSKILLKDLKETEQKVKDIQTQ
In the case of B1, the inhibition of IgE binding to GST-Bt5 in test [1] is 100%.

B2: Blo t 5-Fve (two-in-one chimeric wild type) fusion protein (protein)
chain: QEHKPKKDDFRNEFDHLLIEQANHAIEKGEHQLLYLQHQLDELNENKSKELQEKIIRELDVVCAMIEGAQGALERELKRTDLNILERFNYEEAQTLSKILLKDLKETEQKVKDIQTQSATSLTFQLAYLVKKIDFDYTPNWGRGTPSSYIDNLTFPKVLTDKKYSYRVVVNGSDLGVESNFAVTPSGGQTINFLQYNKGYGVADTKTIQVFVVIPDTGNSEEYIIAEWKKT
B2 had a maximum inhibition of IgE binding to GST-Blo t5 in test [2] of 70%.
